# Results from patent US20180360749A1, “METHODS AND COMPOSITIONS FOR DELIVERY OF MEDICAMENTS TO THE LUNGS” (Paka Pulmonary Pharmaceuticals, priority 2007, published 2018).
# Legend:
# HNE [1] = biological target: T1, HNE (Homo sapiens, UniProt P08246); assay: Bronchoalveolar lavage of the lungs following HNE exposure (lung blood cell level); type: in vivo; settings: mice
# T1 sequence (P08246 30-267): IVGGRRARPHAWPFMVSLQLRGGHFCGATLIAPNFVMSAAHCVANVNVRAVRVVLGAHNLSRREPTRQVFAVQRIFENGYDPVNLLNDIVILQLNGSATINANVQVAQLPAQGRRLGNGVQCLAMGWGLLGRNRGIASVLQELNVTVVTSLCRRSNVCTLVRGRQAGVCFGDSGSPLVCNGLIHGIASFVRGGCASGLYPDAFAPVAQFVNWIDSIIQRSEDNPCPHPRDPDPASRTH
# Experimental: A total of 14 animals were used in this study. Anesthetized mice received 0.1 ml of solution delivered by a blunt tip catheter to the opening of the trachea and the animals allowed to aspirate the solution into their lungs. All animals were exposed to the treatment for 2 hours and re-anesthetized. Bronchoalveolar lavage of the lungs was performed as described below. […] Target 2 (a potent HNE inhibitor developed by Zeneca in the early 1990s) when given with the HNE, reduced the average blood level in the lungs by 34% to 0.035 grams. Target C (the Zeneca molecule covalently attached to the N-terminus of the first 25 residues of the human surfactant B peptide) when given with the HNE reduced the average blood level in the lungs by 87% to 0.007 grams.
# A set of animals was used to determine the optimal concentration of HNE for the study. […] The amount of HNE was reduced to 40 micrograms to maintain a maximal detrimental but survivable effect. The animals exposed to 40 micrograms of HNE were able to survive long enough to perform the complete study. All animals remaining in the complete study were exposed to 40 micrograms of HNE.
# Target 2 (the Zeneca molecule) was given in a 70-fold molar excess relative to HNE. In the kinetic studies, Target 2 has 2 nM affinity. […] Accordingly, the Target C was given to the animals in a 100 fold molar excess relative to HNE in these studies.
# Bronchio-Alveolar lavage (BAL) is performed by 1) anesthetizing the animals; 2) performing a tracheotomy on the animals and cutting open the chest and spreading the ribs to enable full lung expansion; 3) pressurizing lml of PBS buffer solution into the lungs through the tracheotomy catheter; 4) sucking the solution out of the lungs; 5) centrifuging the recovered solution to separate the red blood cell fraction from the liquid fraction; and 6) weighing the red blood cell fraction.
# HNE [2] = biological target: T1, HNE; assay: Kinetic studies of affinity for HNE; type: biochemical
# [3] = given with 40 micrograms HNE via trachea, 2 hours exposure, weight of BAL red blood cell fraction, Target 2 70-fold, Target C 100 fold molar excess relative to HNE
substance,measurement,setting,value
Target C: the Zeneca molecule covalently attached to the N-terminus of the first 25 residues of the human surfactant B peptide (FPIPLPYCWLCRALIKRIQAMIPKG),"Lung Blood Cell Level Measurements, Mouse group 1",HNE [1]; [3],0 g
same,"Lung Blood Cell Level Measurements, Mouse group 2",HNE [1]; [3],0.007 g
same,"Lung Blood Cell Level Measurements, Mouse group 3",HNE [1]; [3],0.014 g
same,"Lung Blood Cell Level Measurements, Group mean","HNE [1]; given with 40 micrograms HNE, 2 hours exposure, mean of the mouse groups",0.007 g
same,average blood level in the lungs (lung blood cell level by weight),"HNE [1]; given with the HNE, 2 hours exposure",0.007 grams
same,reduction of the average blood level in the lungs,"HNE [1]; given with the HNE, relative to animals given HNE (0.053 grams)",87%
same,Ki,HNE [2],~200 nM
same,loss of potency as compared to Target 2,HNE [2],approximately two orders of magnitude
